Target: full-length uncleaved Reelin (FL-Reelin) (UniProt Q60841)
Assay: cross-linking; BS3 cross-linker, 30 minutes on ice, on FL- or C-cleaved Reelin in conditioned medium; anti-Reelin (G10) immunoblot

Question: For “full-length uncleaved Reelin (FL-Reelin), Q60841 27-3461”, which stoichiometry N is on record?
Answer: The stoichiometry N was 2.
